Experimental findings from patent US7612044 are described below.

Sequences and labels used below:
B1: gp100 peptide G10-4 (peptide)
peptide: LLDGTATLRL
modifications: not checked
B2: tyrosinase peptide T9369 (peptide)
peptide: YMNGTMSQV
modifications: not checked
B3: gp100 peptide G10-5 (peptide)
peptide: VLYRYGSFSV
modifications: not checked
B4: G9-154-1L2L (peptide)
peptide: LLWGQYWQV
modifications: not checked
B5: G9-209-2L3Y (peptide)
peptide: ILYQVPFSV
modifications: not checked
B6: G9-154-1F (peptide)
peptide: FTWGQYWQV
modifications: not checked
B7: G9-154-2L (peptide)
peptide: KLWGQYWQV
modifications: not checked
B8: G9-154-1W2L (peptide)
peptide: WLWGQYWQV
modifications: not checked
B9: G9-154-2I (peptide)
peptide: KIWGQYWQV
modifications: not checked
B10: G9-154-3F (peptide)
peptide: KTFGQYWQV
modifications: not checked
B11: G9-154-2M (peptide)
peptide: KMWGQYWQV
modifications: not checked
B12: G9-154-1A2L (peptide)
peptide: ALWGQYWQV
modifications: not checked
B13: G9-154-1A (peptide)
peptide: ATWGQYWQV
modifications: not checked
B14: G9-154-1Y (peptide)
peptide: YTWGQYWQV
modifications: not checked
B15: G9-154-3Y (peptide)
peptide: KTYGQYWQV
modifications: not checked
B16: G9-209-3M (peptide)
peptide: ITMQVPFSV
modifications: not checked
B17: G9-154-1W (peptide)
peptide: WTWGQYWQV
modifications: not checked
B18: G9-209-2L3S (peptide)
peptide: ILSQVPFSV
modifications: not checked
B19: G9-154-1Y2L (peptide)
peptide: YLWGQYWQV
modifications: not checked
B20: G9-154-1F2L (peptide)
peptide: FLWGQYWQV
modifications: not checked
B21: G9-154-1L (peptide)
peptide: LTWGQYWQV
modifications: not checked

In one test the target is T1, HLA-A2.1 (heavy chain with human beta 2-microglobulin) (human). As to the kind of experiment: IC50 of standard HBc18-27 peptide ([…] nM) / IC50 of sample peptide, same competition assay.
Regarding B1, the Ratio to Standard was determined as 0.01.
Still for that read-out and setting: for B2 the value was 0.13; for B3, 0.38.

Another test has as its target T1, HLA-A2.1 (heavy chain with human beta …). As to the kind of experiment: competition with radiolabeled HBc18-27 for soluble HLA-A2.1 + b2m, gel filtration. On the technique in general: Size exclusion chromatography separates by hydrodynamic size, large species first.
In the case of B1, the IC50 was 483 nM.
Same read-out and setting: for B2 the value was 40 nM.
As to B3, the IC50 is 13 nM.

The target is the same in another test. As to the kind of experiment: competition with 5 nM radiolabeled HBc18-27 for HLA-A2.1 + b2m, gel filtration.
With B4, the IC50 was found to be 1.6 nM.
On the same count and under the same terms, then B5, with 5 nM.
On the same count and under the same terms, then B6, with 1.6 nM; and B7, with 2 nM.
On the same count and under the same terms, then B8, with 2.8 nM; and B9, with 3 nM; and B10, with 21 nM.
In the case of B11, the IC50 is 6.5 nM.
The same measure, in the same setting: for B12 the value was 2.3 nM; for B13, 5.2 nM.
The same measure, in the same setting: for B14 the value was 2.5 nM; for B15, 30 nM; for B16, 40 nM.
On the same count and under the same terms, then B17, with 60 nM; and B18, with 20 nM; and B19, with 1.7 nM.
On to B20, for which the IC50 worked out at 2.6 nM.
Turning to B21, the IC50 turned out to be 3.4 nM.

By IC50 is commonly meant the concentration that inhibits the measured activity by half.
